Data reported in article PMC2173498 (The Journal of Cell Biology, 2002).

Molecular target: the molecule itself
Assay: SEC

B1: Nucleoplasmin-M9 (other)
chain: MASTVSNTSKLEKPVSLIWGCELNEQDKTFEFKVEDDEEKCEHQLALRTVCLGDKAKDEFNIVEIVTQEEGAEKSVPIATLKPSILPMATMVGIELTPPVTFRLKAGSGPLYISGQHVAMEEDYSWAEEEDEGEAEGEEEEEEEEDQESFGNYNNQSSNFGPMKGGNFGGRSSGPYGGGGQYFAKPRNQGGYG
Q: With B1 as the protein, how does the “stoichiometry N” value read?
A: 10
